Measurements: the Immune Epitope Database (IEDB)
Each block holds one sequence with its values, some of them ahead of it.

What was measured:
HLA-A*03:01 = test: IEDB peptide-MHC binding, purified MHC/direct/fluorescence; filed as Kd, often an IC50 or EC50 that approximates it; ≥ and ≤ were set here for values at or beyond the usual limits of such assays
HLA-B*44:02 = test: as above
HLA-B*27:05 [1] = test: as above
HLA-A*02:01 = test: as above
HLA-B*08:02 = test: as above; conditions: source organism: Influenza A virus(A/swine/Shandong/fNY/2003(H9N2))
HLA-A*01:01 = test: as above
HLA-A*31:01 = test: as above
HLA-B*07:02 = test: as above
HLA-B*15:01 = test: as above
HLA-B*58:01 = test: as above
HLA-A*24:02 = test: as above
HLA-B*08:01 [2] = test: as above
HLA-B*46:01 = test: as above
HLA-A*26:01 = test: as above; conditions: source organism: Influenza A virus(A/swine/Shandong/fNY/2003(H9N2))
HLA-B*40:01 = test: as above
HLA-A*11:01 = test: as above
HLA-A*69:01 = test: as above
HLA-B*18:01 = test: as above; conditions: source organism: Escherichia coli O157:H7
HLA-B*15:09 = test: as above; conditions: source organism: Giardia lamblia ATCC 50803
HLA-B*27:05 [3] = test: IEDB peptide-MHC binding, purified MHC/competitive/fluorescence; filed as Kd, often an IC50 or EC50 that approximates it; ≥ and ≤ were set here for values at or beyond the usual limits of such assays
HLA-B*08:01 [4] = test: as above; conditions: source organism: Yersinia pestis Antiqua
HLA-A*24:03 = test: IEDB peptide-MHC binding, purified MHC/direct/fluorescence; filed as Kd, often an IC50 or EC50 that approximates it; ≥ and ≤ were set here for values at or beyond the usual limits of such assays; conditions: source organism: Francisella tularensis subsp. holarctica LVS
HLA-A*23:01 = test: as above
[5] = source organism: Influenza A virus (A/Viet Nam/HN/2004(H5N1))
[6] = source organism: Escherichia coli O157:H7
[7] = source organism: Giardia lamblia ATCC 50803
[8] = source organism: Francisella tularensis subsp. holarctica LVS
[9] = source organism: dengue virus type 2

Sequence: ERNEQGQTL
Kd (HLA-A*03:01; [5]): ≥ 20 µM
Kd (HLA-B*44:02; [5]): ≥ 20 µM
Kd (HLA-B*27:05 [1]; [5]): ≥ 20 µM
Kd (HLA-A*02:01; [5]): ≥ 20 µM
Kd (HLA-B*08:02): ≥ 20 µM
Kd (HLA-A*01:01; [5]): ≥ 20 µM
Kd (HLA-A*31:01; [5]): ≥ 20 µM
Kd (HLA-B*07:02; [5]): ≥ 20 µM
Kd (HLA-B*15:01; [5]): ≥ 20 µM
Kd (HLA-B*58:01; [5]): ≥ 20 µM
Kd (HLA-A*24:02; [5]): ≥ 20 µM
Kd (HLA-B*08:01 [2]; [5]): ≥ 20 µM
Kd (HLA-B*46:01; [5]): ≥ 20 µM
Kd (HLA-A*26:01): ≥ 20 µM
Kd (HLA-B*40:01; [5]): ≥ 20 µM
Kd (HLA-A*11:01; [5]): ≥ 20 µM

Kd (HLA-A*03:01; [6]): ≥ 20 µM
Kd (HLA-B*44:02; [6]): ≥ 20 µM
Kd (HLA-B*27:05 [1]; [6]): ≥ 20 µM
Kd (HLA-A*02:01; [6]): ≥ 20 µM
Kd (HLA-A*01:01; [6]): ≥ 20 µM
Kd (HLA-A*31:01; [6]): ≥ 20 µM
Kd (HLA-B*07:02; [6]): ≥ 20 µM
Kd (HLA-B*15:01; [6]): ≥ 20 µM
Kd (HLA-B*58:01; [6]): ≥ 20 µM
Kd (HLA-A*69:01; [6]): ≥ 20 µM
Kd (HLA-A*24:02; [6]): ≥ 20 µM
Kd (HLA-B*46:01; [6]): ≥ 20 µM
Kd (HLA-B*40:01; [6]): ≥ 20 µM
Kd (HLA-A*11:01; [6]): ≥ 20 µM
Kd (HLA-B*18:01): ≥ 20 µM
Sequence: LDKGKLWHL

Sequence: LERIKANIF
Kd (HLA-A*03:01; [7]): ≥ 20 µM
Kd (HLA-B*44:02; [7]): ≥ 20 µM
Kd (HLA-B*27:05 [1]; [7]): ≥ 20 µM
Kd (HLA-A*02:01; [7]): ≥ 20 µM
Kd (HLA-A*01:01; [7]): ≥ 20 µM
Kd (HLA-A*31:01; [7]): ≥ 20 µM
Kd (HLA-B*07:02; [7]): ≥ 20 µM
Kd (HLA-B*15:01; [7]): 0.918 µM
Kd (HLA-B*58:01; [7]): ≥ 20 µM
Kd (HLA-A*69:01; [7]): ≥ 20 µM
Kd (HLA-A*24:02; [7]): ≥ 20 µM
Kd (HLA-B*15:09): ≥ 20 µM
Kd (HLA-B*08:01 [2]; [7]): 16.6 µM
Kd (HLA-B*46:01; [7]): ≥ 20 µM
Kd (HLA-B*40:01; [7]): 2.43 µM
Kd (HLA-A*11:01; [7]): ≥ 20 µM

Sequence: LRQKRKAGV
Kd (HLA-B*27:05 [3]; source organism: Yersinia pestis Antiqua): 0.0805 µM
Kd (HLA-B*08:01 [4]): ≥ 20 µM

Sequence: RQWRWPLGE
Kd (HLA-B*27:05 [3]; source organism: Mycobacterium tuberculosis C): 0.928 µM

Sequence: VYYIVVRDF
Kd (HLA-A*24:03): 0.0275 µM
Kd (HLA-A*24:02; [8]): 0.0061 µM
Kd (HLA-A*23:01; [8]): 0.017 µM

Sequence: WYGMEIRPL
Kd (HLA-A*24:02; [9]): 0.455 µM
Kd (HLA-A*23:01; [9]): 1.8 µM
